Earlier results, collected in PMC5433096.
pKd: −log10 of the molar value.

Biological target: PhoB (Escherichia coli) (UniProt P0AFJ5)
UniProt P0AFJ5, sequence (P0AFJ5 whole entry): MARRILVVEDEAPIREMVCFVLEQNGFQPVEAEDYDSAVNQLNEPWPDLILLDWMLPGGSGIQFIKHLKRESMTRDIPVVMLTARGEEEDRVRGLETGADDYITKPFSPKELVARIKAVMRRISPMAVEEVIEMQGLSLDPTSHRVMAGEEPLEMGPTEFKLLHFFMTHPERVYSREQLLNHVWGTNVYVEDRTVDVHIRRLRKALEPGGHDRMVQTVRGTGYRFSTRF

PhoR (from UniProt P08400)
pKd: 5.52
